Source: article PMC3281020

Legend:
[1] = system: Isw1a complex (TAP-purified via Ioc3-TAP, strain YTT1168) (yeast, strain YTT1168); assay: TEM; conditions: no ATP, TEM/EMSA: 20 mM (Methods: 10 mM) Tris-HCl pH 8.0, 30 mM KCl, 17.5 mM NaCl, 1 mM Hepes pH 7.6, 0.75% glycerol, 20 min at 30 C, 750 nM DNA in bp, CHD1 tweezers: …
[2] = system: Isw1a complex (TAP-purified via Ioc3-TAP, strain YTT1168) (yeast, strain YTT1168); assay: TEM, competition; conditions: TEM/EMSA: 20 mM (Methods: 10 mM) Tris-HCl pH 8.0, 30 mM KCl, 17.5 mM NaCl, 1 mM Hepes pH 7.6, 0.75% glycerol, 20 min at 30 C, 750 nM DNA in bp, CHD1 tweezers: …
[3] = system: Isw1a complex (TAP-purified via Ioc3-TAP, strain YTT1168) (yeast, strain YTT1168); assay: magnetic tweezers; conditions: no ATP, end-tethered to glass and bead (1 um), TEM/EMSA: 20 mM (Methods: 10 mM) Tris-HCl pH 8.0, 30 mM KCl, 17.5 mM NaCl, 1 mM Hepes pH 7.6, 0.75% glycerol, 20 min at 30 C, 750 nM DNA in bp, CHD1 tweezers: …

Substance | binding signal (% unbound DNA) ([1]; 2 nM Isw1a) | binding signal (% unbound DNA) ([1]; 10 nM Isw1a) | binding signal (% unbound DNA) ([1]; 50 nM Isw1a) | binding signal (% unbound DNA) ([2]; 2 nM Isw1a, 1:1 mixture with scDNA) | binding signal (% unbound DNA) ([2]; 10 nM Isw1a, 1:1 mixture with scDNA) | binding signal (% unbound DNA) ([2]; 50 nM Isw1a, 1:1 mixture with scDNA) | binding signal (% unbound DNA) ([2]; 2 nM Isw1a, 1:1 mixture with linear DNA) | binding signal (% unbound DNA) ([2]; 10 nM Isw1a, 1:1 mixture with linear DNA) | binding signal (% unbound DNA) ([2]; 50 nM Isw1a, 1:1 mixture with linear DNA) | Kd ([3]; F about 1 pN, tau_on 64 s, tau_off 69 s) [nM] | Kd ([3]; extrapolated to zero force, single nucleation complex) [nM]
linear pBR322 EcoRV-SspI fragment, 3983 bp | 82 | 53 | 20 | 90 | 73 | 25 | – | – | – | – | –
pBR322 negatively supercoiled plasmid | 57 | 37 | 10 | – | – | – | 59 | 33 | 6 | – | –
3.6 kbp tethered DNA (magnetic trap) | – | – | – | – | – | – | – | – | – | 1 | 0.001
